Measured values from paper PMC10088672 (2023).

How the values were obtained:
[1] = target: T1, SARS-CoV-2 spike RBD, Wuhan-Hu-1 (SARS-CoV-2, UniProt P0DTC2 321-536); test: BLI
[2] = target: T1, SARS-CoV-2 spike RBD, Wuhan-Hu-1; test: BLI; remark: listed apart in the source

B1: NCV2SG53 monoclonal antibody (human IgG) (antibody, V domains shown)
VH: QVQMVESGGGLVRPGGSLRLSCAASGFTFSDYYMSWIRQAPGKGLEWISYISSSGSSMNYADSVKGRFTISRDNAKNSLFLQMNSLRAEDTAVYYCAREFDLTKIIMVPPYWGQGTLVTVSS
VL: AIQLTQSPSSLSASVGDRVTITCRASQGISSYLAWYQQKPGKAPKVLIYAASTLQSGVPSRFSGSGSGTDFTLTISSLQPEDFATYYCQQLKSYPLTFGGGTKVEIT
- koff [1]: 0.00022 s⁻¹
- Kd [2]: 2.6 nM

B2: NCV2SG48 monoclonal antibody (human IgG) (antibody, V domains shown)
VH: EVQLVESGGGLIQPGGSLRLSCAASGFIVSRNYMNWVRQAPGKGLEWVALIYSGGSTFYADSVKGRFTISRDNSKNTLYLQMNSLRAEDTAVYYCARDLVVYGLDYWGQGTLVTVSS
VL: AIQLTQSPSSLSASVGDRVTITCRASQGISSHLAWYQQKPGKAPKLLIFAASTLQSGVPSRFSGSGSGTDFTLTISSLQPEDFATYYCQHLNSNPPITFGQGTRLEIK
- koff [1]: 0.00015 s⁻¹
- Kd [2]: 2.5 nM
